Experiment in all cases: cell-based or functional assay
The target of test [1] is HIV-1 Env of pseudovirus isolate MGRM-G-019 (subtype G) (HIV-1).
Test [2] deals with HIV-1 Env of pseudovirus isolate MGRM-G-024 (subtype G) (HIV-1).
The target of test [3] is HIV-1 Env of isolate 92UG046 (subtype D) (HIV-1).
Test [4] has as its target HIV-1 Env of isolate 98CN006 (subtype CRF08_BC) (HIV-1).
Test [5] addresses envelope of aMLV pseudovirus (negative control).
Test [6] concerns the target HIV-1 Env of pseudovirus isolate MGRM-G-017 (subtype G) (HIV-1).
The target in test [7] is HIV-1 Env of pseudovirus isolate MGRM-G-009 (subtype G) (HIV-1).
Test [8] addresses HIV-1 Env of isolate 92UG001 (subtype D) (HIV-1).
In test [9] the target is HIV-1 Env of pseudovirus isolate MGRM-G-025 (subtype G) (HIV-1).
In test [10] the target is HIV-1 Env of isolate 98CN009 (subtype CRF07_BC) (HIV-1).
The target of test [11] is HIV-1 Env of pseudovirus isolate MGRM-G-001 (subtype G) (HIV-1).
The target in test [12] is HIV-1 Env of isolate 92UG005 (subtype D) (HIV-1).
For test [13], the target named is HIV-1 Env of pseudovirus isolate MGRM-G-016 (subtype G) (HIV-1).
The target of test [14] is HIV-1 Env of pseudovirus isolate MGRM-G-027 (subtype G) (HIV-1).
Test [15] concerns the target HIV-1 Env of pseudovirus isolate MGRM-G-014 (subtype G) (HIV-1).
In test [16] the target is HIV-1 Env of isolate 92UG024 (subtype D) (HIV-1).
Test [17] has as its target HIV-1 Env of pseudovirus isolate MGRM-G-028 (subtype G) (HIV-1).
Test [18] concerns the target HIV-1 Env of pseudovirus isolate MGRM-G-015 (subtype G) (HIV-1).
Test [19] has as its target HIV-1 Env of pseudovirus isolate MGRM-G-011 (subtype G) (HIV-1).
The target of test [20] is HIV-1 Env of pseudovirus isolate MGRM-G-013 (subtype G) (HIV-1).
In test [21] the target is HIV-1 Env of pseudovirus isolate MGRM-G-004 (subtype G) (HIV-1).
Test [22] concerns the target HIV-1 Env of pseudovirus isolate MGRM-G-006 (subtype G) (HIV-1).

The text below walks through data of patent US20160264649A1.

As usually defined, the IC50 is the midpoint of a concentration-inhibition curve.

Chain of PGT-141 (antibody) (VH): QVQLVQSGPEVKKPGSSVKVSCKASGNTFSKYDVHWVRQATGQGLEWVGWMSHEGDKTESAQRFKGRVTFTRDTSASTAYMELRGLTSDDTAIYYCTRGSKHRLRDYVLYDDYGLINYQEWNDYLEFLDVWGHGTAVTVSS
Chain of PGT-141 (antibody) (VL): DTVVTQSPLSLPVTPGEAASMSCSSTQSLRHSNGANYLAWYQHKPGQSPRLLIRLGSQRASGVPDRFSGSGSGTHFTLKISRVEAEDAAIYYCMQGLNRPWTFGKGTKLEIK
Chain of PGT-142 (antibody) (VH): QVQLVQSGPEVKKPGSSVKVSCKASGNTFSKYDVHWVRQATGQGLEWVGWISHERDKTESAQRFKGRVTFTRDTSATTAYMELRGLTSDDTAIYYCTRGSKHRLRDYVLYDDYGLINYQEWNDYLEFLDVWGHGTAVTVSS
Chain of PGT-142 (antibody) (VL): as the sequence (VL) above

Regarding PGT-142 (antibody), the IC50 was 5.95 µg/mL in [1]; 0.054 µg/mL in test [2]; above 50 µg/mL in [5]; 0.125 µg/mL in test [6]; 2.81 µg/mL in [7]; above 50 µg/mL in test [9]. The concentration for half-maximal inhibition (IC50) in [11] is 0.362 µg/mL; in test [13], 8.17 µg/mL; in [14], above 50 µg/mL; in test [15], 0.076 µg/mL; in test [17], 30.3 µg/mL; in test [18], above 50 µg/mL. Further, the IC50 was 0.046 µg/mL in test [19], above 50 µg/mL in test [20], above 50 µg/mL in test [21] and 0.019 µg/mL in test [22]. Further, the IC50 (neutralization) in [3] was above 50 µg/mL; in test [4], above 50 µg/mL; in [8] it was above 50 µg/mL; in test [10] it was 4 µg/mL; in [12], above 50 µg/mL; in [16], above 50 µg/mL.

For the substance PGT-141 (antibody), the IC50 is 20.3 µg/mL in test [1]; 0.051 µg/mL in [2]; above 50 µg/mL in [5]; 0.164 µg/mL in test [6]; 1.89 µg/mL in [7]; above 50 µg/mL in test [9]. The IC50 was 0.392 µg/mL in [11]; 4.69 µg/mL in test [13]; above 50 µg/mL in test [14]; 0.222 µg/mL in test [15]; 24.9 µg/mL in test [17]; above 50 µg/mL in [18]. Further, the IC50 in test [19] is 0.086 µg/mL; in test [20] it was above 50 µg/mL; in test [21], above 50 µg/mL; in test [22], 0.043 µg/mL. Besides, the IC50 (neutralization) in test [3] was above 50 µg/mL; in test [4], above 50 µg/mL; in test [8], above 50 µg/mL; in test [10], 1.28 µg/mL; in test [12], above 50 µg/mL; in [16] it was above 50 µg/mL.
